{
  "source": "patent US20200292534A1",
  "about": "(published 2020)",
  "assay_in_all_cases": "luminescence complementation titration, one-site specific binding",
  "key": {"NLpoly11S [1]": {"target": "T1, NLpoly11S", "T1 chain": "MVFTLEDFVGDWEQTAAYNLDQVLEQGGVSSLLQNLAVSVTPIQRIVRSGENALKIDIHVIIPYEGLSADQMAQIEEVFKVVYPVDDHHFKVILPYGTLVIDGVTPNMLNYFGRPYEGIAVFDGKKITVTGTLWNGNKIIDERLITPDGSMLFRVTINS"}, "NLpoly11S [2]": {"target": "T1, NLpoly11S"}, "NLpoly11S [3]": {"target": "T1, NLpoly11S"}},
  "note": "Where two headings read alike, the source gives them in different places.",
  "data": [
    {"binder": "MNVTGYRLFKKISN (other)", "note": "[NLpep79-HaloTag]", "values": [
      {"measurement": "Kd", "setting": "NLpoly11S [1]", "value": 22.9, "unit": "nM"}
    ]},
    {"binder": "VTGYRLFEEIL", "note": "[NLpep114]", "values": [
      {"measurement": "Kd", "setting": "NLpoly11S [2]", "value": 199000, "unit": "nM"}
    ]},
    {"binder": "GVTGWRLCERILA", "note": "[NLpep1]", "values": [
      {"measurement": "Kd", "setting": "NLpoly11S [2]", "value": 2460, "unit": "nM"}
    ]},
    {"binder": "NVTGYRLFKKISN (other)", "note": "[HaloTag-NLPep79]", "values": [
      {"measurement": "Kd", "setting": "NLpoly11S [1]", "value": 33.9, "unit": "nM"}
    ]},
    {"binder": "MNVSGWRLFKKISN (other)", "note": "[NLpep78-HaloTag]", "values": [
      {"measurement": "Kd", "setting": "NLpoly11S [3]", "value": 30.2, "unit": "nM"}
    ]},
    {"binder": "NVSGWRLFKKISN (other)", "note": "[HaloTag-NLPep78]", "values": [
      {"measurement": "Kd", "setting": "NLpoly11S [3]", "value": 7.21, "unit": "nM"}
    ]}
  ]
}
